Experimental data reported in patent US20240254458A1.

Molecular target: LexA408-DBD-iLight V464L-msfGFP (E. coli; Idiomarina sp.)
Test: cell-based or functional assay

Substance: LexA408-DBD-iLight V464L-msfGFP
- inhibition efficiency of the gene expression (mCherry reporter, E. coli, 660 nm): 1.6 fold
